These results are taken from paper PMC8034861.

The target of the assay is Alexa Fluor 488-PR30 peptide (human). Briefly: single-molecule TIRF motility assay, co-transport of peptide foci with motors; 1 μM fluorescent PR30 with KIF5B::GFP or TMR-dynein-dynactin-BICD2N on immobilised microtubules; motility buffer with 25 mM KCl, α-casein, 5 mM MgATP; 23 ± 1°C; foci of PR30 moving with processive motors scored on kymographs.
Sequence of Alexa Fluor 488-PR30 peptide (human) (peptide, as listed by the source): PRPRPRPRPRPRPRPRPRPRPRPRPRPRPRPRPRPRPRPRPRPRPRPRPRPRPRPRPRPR

For “TMR-dynein-dynactin-BICD2N complex (from UniProt Q14204 1-4646; A0A287B8J2 1-1281)”, the percent of processive motor complexes transporting large foci of PR30 came out at 8.1%.
